In publication PMC5999314:

Molecular target: dengue poly-immunoglobulin G scaffold (D-PIGS), unfractionated, from ∆XF N. benthamiana
Assay: SPR; Biacore X100, affinity layout: 200 RU of D-PIGS (unfractionated) or hIgG1 captured on immobilised protein A (CM5 chip); CD16a or CD64 injected as analyte, 12.5 to 800 nM, contact 60 s, 50 uL/min, dissociation 200 s; two-state model for CD16a, 1:1 model for CD64

recombinant human CD16a (from UniProt P08637 17-208) (receptor)
Kd: 24.8 nM
